The results in this text go back to US20060252692A1, “Inhibitors for use in hemostasis” (ZymoGenetics, Inc., priority 2002, published 2006).

This assay deals with iliac artery crush injury/stenosis. Briefly: Rabbit iliac artery crush injury/stenosis model. It is filed as in vivo, New Zealand White rabbits. As to the method:
The effect of zsig37 on blood flow dynamics following vascular injury in a rabbit iliac artery crush injury/stenosis model was also evaluated. Young adult male New Zealand White rabbits were anesthetized as described above. Via an abdominal incision, the aorto-iliac bifurcation was exposed and each iliac freed of surrounding tissues and the main branches ligated. Each iliac was fitted with an ultrasound flow probe to monitor blood flow through the vessel. Based on blood flow data, one iliac was selected to be used for the injury and the other was catheterized for delivery of the test sample. Rabbits were divided into dose groups of 6 animals/group. Test sample doses containing zsig37 increased in half-log increments from 3-1000 μg/kg over the selected infusion period. The test samples infusion was initiated followed by creation of a critical stenosis that reduced blood flow through the vessel by approximately 50%. After creation of the stenosis and a period of blood flow stabilization, the vessel was injured by crushing the vessel between the jaws of a smooth needle holder. The infusion was continued post-injury for a set period of time, 10-20 minutes. Blood flow through the injured vessel was monitored for 60 minutes post-injury. The animals were euthanized at he conclusion of the study period. […]

B1: zsig37: adipocyte complement related protein homolog, polypeptide of SEQ ID NO:2, inhibits collagen-mediated platelet activation and the complement pathway (protein, listed as Homo sapiens)
chain: MGSRGQGLLLAYCLLLAFASGLVLSRVPHVQGEQQEWEGTEELPSPPDHAERAEEQHEKYRPSQDQGLPASRCLRCCDPGTSMYPATAVPQINITILKGEKGDRGDRGLQGKYGKTGSAGARGHTGPKGQKGSMGAPGERCKSHYAAFSVGRKKPMHSNHYYQTVIFDTEFVNLYDHFNMFTGKFYCYVPGLYFFSLNVHTWNQKETYLHIMKNEEEVVILFAQVGDRSIMQSQSLMLELREQDQVWVRLYKGERENAIFSEELDTYITFSGYLVKHATEP
Take B1: under “3-1000 μg/kg infusion, 60 minute period”, the patency time result is “tendency for zsig37 to promote increased patency time with increased dose up to 300 μg/kg”. Also, the thrombolytic activity result (study with zsig37 hexamer, flow starting from occlusion) is “possesses thrombolytic activity”.
